# According to patent EP4667491A1 (Genome and Company, dated 2025):
# Where two headings read alike, the source gives them in different places.
# T1: human CNTN4 expressed on the cell surface (human, UniProt Q8IWV2 19-1000)
# T1 construct: whole, on cells; also called human CNTN4 cell
# T1 sequence (looked up): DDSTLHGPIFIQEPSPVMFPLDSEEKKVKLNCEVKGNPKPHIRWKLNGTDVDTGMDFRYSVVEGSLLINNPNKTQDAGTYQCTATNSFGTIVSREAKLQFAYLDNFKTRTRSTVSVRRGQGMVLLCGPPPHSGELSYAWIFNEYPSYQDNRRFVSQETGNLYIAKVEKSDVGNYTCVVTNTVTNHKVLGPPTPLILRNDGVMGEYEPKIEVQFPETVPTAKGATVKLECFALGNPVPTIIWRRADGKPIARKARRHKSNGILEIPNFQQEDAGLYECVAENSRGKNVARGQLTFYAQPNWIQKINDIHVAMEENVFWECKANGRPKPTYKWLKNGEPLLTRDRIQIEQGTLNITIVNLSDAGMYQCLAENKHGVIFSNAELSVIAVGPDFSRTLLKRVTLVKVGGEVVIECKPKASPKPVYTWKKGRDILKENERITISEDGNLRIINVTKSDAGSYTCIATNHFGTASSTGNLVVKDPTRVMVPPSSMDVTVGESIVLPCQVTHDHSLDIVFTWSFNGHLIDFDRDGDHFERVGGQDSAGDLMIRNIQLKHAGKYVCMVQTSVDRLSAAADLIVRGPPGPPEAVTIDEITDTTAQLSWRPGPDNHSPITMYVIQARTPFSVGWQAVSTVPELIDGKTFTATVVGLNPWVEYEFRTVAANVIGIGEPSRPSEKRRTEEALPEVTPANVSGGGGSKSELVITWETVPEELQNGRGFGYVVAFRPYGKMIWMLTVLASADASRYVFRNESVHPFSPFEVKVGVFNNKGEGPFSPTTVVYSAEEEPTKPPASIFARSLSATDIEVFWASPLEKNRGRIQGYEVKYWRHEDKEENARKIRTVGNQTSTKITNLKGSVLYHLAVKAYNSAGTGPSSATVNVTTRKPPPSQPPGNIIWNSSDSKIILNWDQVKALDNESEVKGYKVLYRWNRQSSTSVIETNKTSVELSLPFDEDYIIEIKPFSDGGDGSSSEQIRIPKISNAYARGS
# T2: Human CNTN4 (His-tagged) (human, UniProt Q8IWV2 19-1000, limits assumed)
# T2 construct: also called human CNTN4 protein; not shown: His tag
# T2 sequence (looked up): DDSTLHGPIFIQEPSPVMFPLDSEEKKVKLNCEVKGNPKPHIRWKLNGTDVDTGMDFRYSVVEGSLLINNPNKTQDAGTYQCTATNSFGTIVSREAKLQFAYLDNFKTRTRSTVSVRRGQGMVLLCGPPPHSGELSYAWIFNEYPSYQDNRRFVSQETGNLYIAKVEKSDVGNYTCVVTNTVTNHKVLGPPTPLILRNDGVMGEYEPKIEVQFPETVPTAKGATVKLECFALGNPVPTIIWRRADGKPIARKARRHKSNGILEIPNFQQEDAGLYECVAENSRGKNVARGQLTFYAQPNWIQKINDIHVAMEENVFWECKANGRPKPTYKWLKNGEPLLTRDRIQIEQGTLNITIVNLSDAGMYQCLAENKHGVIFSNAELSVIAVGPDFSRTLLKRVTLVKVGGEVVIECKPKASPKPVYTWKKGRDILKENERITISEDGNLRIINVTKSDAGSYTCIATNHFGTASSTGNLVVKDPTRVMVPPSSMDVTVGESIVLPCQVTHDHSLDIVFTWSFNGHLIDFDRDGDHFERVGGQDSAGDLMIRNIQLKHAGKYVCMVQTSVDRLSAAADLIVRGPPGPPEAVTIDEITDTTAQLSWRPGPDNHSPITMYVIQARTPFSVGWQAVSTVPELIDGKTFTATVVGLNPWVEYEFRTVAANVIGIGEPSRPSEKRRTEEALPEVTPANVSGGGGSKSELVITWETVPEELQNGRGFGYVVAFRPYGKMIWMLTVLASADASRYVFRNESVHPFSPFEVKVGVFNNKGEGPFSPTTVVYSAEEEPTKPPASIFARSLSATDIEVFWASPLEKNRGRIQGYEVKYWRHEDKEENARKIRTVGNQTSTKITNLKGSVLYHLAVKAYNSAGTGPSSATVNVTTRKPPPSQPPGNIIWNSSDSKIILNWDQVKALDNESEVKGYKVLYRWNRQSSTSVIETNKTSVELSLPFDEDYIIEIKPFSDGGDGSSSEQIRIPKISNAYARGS
# Columns and labels:
# [1] = molecular target: T1, human CNTN4 expressed on the cell …; assay: flow cytometry; IgG on human CNTN4-overexpressing HEK293 cells
# [2] = molecular target: T2, Human CNTN4 (His-tagged); assay: ELISA; His-tagged human CNTN4 captured by anti-His antibody, anti-human IgG-HRP
# [3] = molecular target: T1, human CNTN4 expressed on the cell …; assay: flow cytometry; IgG on human CNTN4-overexpressing HEK293 cells; remark: listed apart in the source
# [4] = molecular target: T2, Human CNTN4 (His-tagged); assay: ELISA; His-tagged human CNTN4 captured by anti-His antibody, anti-human IgG-HRP; remark: listed apart in the source
# [5] = molecular target: T2, Human CNTN4 (His-tagged); assay: SPR; IgG captured on CM5 chip, His-tagged human CNTN4 as analyte, 1:1 fit
Binder,EC50 [1] [nM],EC50 [2] [nM],EC50 [3] [nM],TOP MFI [3] [MFI],EC50 [4] [nM],Kd [5] [nM]
"A114-IgG antibody (antibody, V domains shown, VH fused to CH1, hinge, CH2 and CH3 of human IgG4 (S228P); also called A114-IgG Ab; Al14-IgG Ab) VH: not shown VL: ELTQDPAVSVALGQTVRITCSGSSGSYGWYQQKPGQAPVLVIYDNTNRPSGIPDRFSGSSSGNTASLTITGAQAEDEADYYCGGYWGSTDVFGGGTKLTVL",0.539,0.129,0.262,470,,
"A108-IgG antibody (antibody, V domains shown, VH fused to CH1, hinge, CH2 and CH3 of human IgG4 (S228P); also called A108-IgG Ab) VH: not shown VL: ELTQDPAVSVALGQTVRITCSGSSGSYGWYQQKPGQAPVLVIYDNTNRPSGIPDRFSGSSSGNTASLTITGAQAEDEADYYCGGYDGSTDVFGGGTKLTVL",,0.034,0.074,356,,
"A105-IgG antibody (antibody, V domains shown, VH fused to CH1, hinge, CH2 and CH3 of human IgG4 (S228P); also called A105-IgG Ab) VH: not shown VL: ELTQDPAVSVALGQTVRITCSGSSGSYGWYQQKPGQAPVLVIYDNTNRPSGIPDRFSGSSSGNTASLTITGAQAEDEADYYCGGYDGSTDVFGGGTKLTVL",,0.153,0.234,454,,
"A112-IgG antibody (antibody, V domains shown, VH fused to CH1, hinge, CH2 and CH3 of human IgG4 (S228P); also called A112-IgG Ab) VH: not shown VL: ELTQDPAVSVALGQTVRITCSGRSGSYGWYQQKPGQAPVLVIYDNTNRPSGIPDRFSGSSSGNTASLTITGAQAEDEADYYCGGYDGSTDVFGGGTKLTVL",,0.075,0.204,422,,
"A106-IgG antibody (antibody, V domains shown, VH fused to CH1, hinge, CH2 and CH3 of human IgG4 (S228P); also called A106-IgG Ab) VH: not shown VL: ELTQDPAVSVALGQTVRITCSGSSGSYGWYQQKPGQAPVLVIYDNTNRPSGIPDRFSGSSSGNTASLTITGAQAEDEADYYCGGYDGSTDVFGGGTKLTVL",,0.042,0.086,336,,
"A102-IgG antibody (antibody, V domains shown, VH fused to CH1, hinge, CH2 and CH3 of human IgG4 (S228P); also called A102-IgG Ab) VH: not shown VL: ELTQDPAVSVALGQTVRITCSGSSGSYGWYQQKPGQAPVLVIYDNTNRPSGIPDRFSGSSSGNTASLTITGAQAEDEADYYCGGYDGSTDVFGGGTKLTVL",,0.057,0.066,328,,
"A109-IgG antibody (antibody, V domains shown, VH fused to CH1, hinge, CH2 and CH3 of human IgG4 (S228P); also called A109-IgG Ab) VH: not shown VL: ELTQDPAVSVALGQTVRITCSGSSGSYGWYQQKPGQAPVLVIYDNTNRPSGIPDRFSGSSSGNTASLTITGAQAEDEADYYCGGYDGSTDVFGGGTKLTVL",,0.041,0.082,357,,
"A103-IgG antibody (antibody, V domains shown, VH fused to CH1, hinge, CH2 and CH3 of human IgG4 (S228P); also called A103-IgG Ab) VH: not shown VL: ELTQDPAVSVALGQTVRITCSGSSGSYGWYQQKPGQAPVLVIYDNTNRPSGIPDRFSGSSSGNTASLTITGAQAEDEADYYCGGYDGSTDVFGGGTKLTVL",,0.031,0.09,378,,
"A104-IgG antibody (antibody, V domains shown, VH fused to CH1, hinge, CH2 and CH3 of human IgG4 (S228P); also called A104-IgG Ab) VH: not shown VL: ELTQDPAVSVALGQTVRITCSGSSGSYGWYQQKPGQAPVLVIYDNTNRPSGIPDRFSGSSSGNTASLTITGAQAEDEADYYCGGYDGSTDVFGGGTKLTVL",,0.069,0.109,358,,

# Other lines, results leading:
EC50 [1] [nM],EC50 [2] [nM],EC50 [3] [nM],TOP MFI [3] [MFI],EC50 [4] [nM],Kd [5] [nM],Binder
,,,,0.027,0.702,"A206-IgG antibody (antibody, V domains shown, VH fused to CH1, hinge, CH2 and CH3 of human IgG4 (S228P); also called A206-IgG Ab) VH: not shown VL: ELTQDPAVSVALGQTVRITCSGRSGSYGWYQQKPGQAPVLVIYDNTNRPSGIPDRFSGSSSGNTASLTITGAQAEDEADYYCGGYWGSTDVFGGGTKLTVL"
,,,,0.033,1.18,"A217-IgG antibody (antibody, V domains shown, VH fused to CH1, hinge, CH2 and CH3 of human IgG4 (S228P); also called A217-IgG Ab) VH: not shown VL: ELTQDPAVSVALGQTVRITCSGSSGSYGWYQQKPGQAPVLVIYDNTNRPSGIPDRFSGSSSGNTASLTITGAQAEDEADYYCGGYWGSTDVFGGGTKLTVL"
,,,,0.015,0.663,"A204-IgG antibody (antibody, V domains shown, VH fused to CH1, hinge, CH2 and CH3 of human IgG4 (S228P); also called A204-IgG Ab) VH: not shown VL: ELTQDPAVSVALGQTVRITCSGRSGSYGWYQQKPGQAPVLVIYDNTNRPSGIPDRFSGSSSGNTASLTITGAQAEDEADYYCGGYWGSTDVFGGGTKLTVL"
,,,,0.026,0.662,"A209-IgG antibody (antibody, V domains shown, VH fused to CH1, hinge, CH2 and CH3 of human IgG4 (S228P); also called A209-IgG Ab; A209-TgG Ab) VH: not shown VL: ELTQDPAVSVALGQTVRITCSGRSGSYGWYQQKPGQAPVLVIYDNTNRPSGIPDRFSGSSSGNTASLTITGAQAEDEADYYCGGYWGSTDVFGGGTKLTVL"
,,,,0.035,,"A202-IgG antibody (antibody, V domains shown, VH fused to CH1, hinge, CH2 and CH3 of human IgG4 (S228P); also called A202-IgG Ab) VH: not shown VL: ELTQDPAVSVALGQTVRITCSGRSGSYGWYQQKPGQAPVLVIYDNTNRPSGIPDRFSGSSSGNTASLTITGAQAEDEADYYCGGYWGSTDVFGGGTKLTVL"
0.316,,,,0.033,0.709,"A211-IgG antibody (antibody, V domains shown, VH fused to CH1, hinge, CH2 and CH3 of human IgG4 (S228P); also called A211-IgG Ab) VH: not shown VL: ELTQDPAVSVALGQTVRITCSGRSGSYGWYQQKPGQAPVLVIYDNTNRPSGIPDRFSGSSSGNTASLTITGAQAEDEADYYCGGYWGSTDVFGGGTKLTVL"
